Assay results published in publication doi:10.1101/2022.04.27.489743 (bioRxiv, 2022).

What was measured:
Assay in all cases: ITC
[1] = biological target: AnkG R6-16 (UniProt O70511)
[2] = biological target: T1, AnkG ANK repeats (R1-24, residues 38-855) (UniProt O70511 38-855)
T1 sequence: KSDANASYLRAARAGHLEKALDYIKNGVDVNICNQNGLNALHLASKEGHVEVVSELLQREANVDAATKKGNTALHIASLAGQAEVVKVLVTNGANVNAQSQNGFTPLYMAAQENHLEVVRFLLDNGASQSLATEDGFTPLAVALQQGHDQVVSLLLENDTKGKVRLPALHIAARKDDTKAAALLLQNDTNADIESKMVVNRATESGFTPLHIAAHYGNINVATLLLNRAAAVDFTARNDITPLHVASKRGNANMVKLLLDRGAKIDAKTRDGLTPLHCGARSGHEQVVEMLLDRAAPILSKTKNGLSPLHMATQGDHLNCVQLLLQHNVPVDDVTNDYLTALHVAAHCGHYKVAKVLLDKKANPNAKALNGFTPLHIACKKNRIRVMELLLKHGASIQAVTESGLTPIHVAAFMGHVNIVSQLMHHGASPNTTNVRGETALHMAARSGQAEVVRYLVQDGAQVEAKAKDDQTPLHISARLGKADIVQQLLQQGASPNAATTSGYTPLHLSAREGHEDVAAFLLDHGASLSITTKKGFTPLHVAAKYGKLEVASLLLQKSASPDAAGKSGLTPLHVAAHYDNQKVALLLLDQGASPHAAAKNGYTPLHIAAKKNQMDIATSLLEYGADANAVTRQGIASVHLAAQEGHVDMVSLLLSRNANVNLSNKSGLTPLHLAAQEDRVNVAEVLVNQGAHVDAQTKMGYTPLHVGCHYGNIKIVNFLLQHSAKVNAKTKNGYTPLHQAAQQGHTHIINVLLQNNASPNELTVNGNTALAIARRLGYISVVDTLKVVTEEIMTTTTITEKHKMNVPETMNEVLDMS

[3] = biological target: T2, AnkG 275-571 (AnkG R8-16) (UniProt O70511 275-571)
T2 sequence: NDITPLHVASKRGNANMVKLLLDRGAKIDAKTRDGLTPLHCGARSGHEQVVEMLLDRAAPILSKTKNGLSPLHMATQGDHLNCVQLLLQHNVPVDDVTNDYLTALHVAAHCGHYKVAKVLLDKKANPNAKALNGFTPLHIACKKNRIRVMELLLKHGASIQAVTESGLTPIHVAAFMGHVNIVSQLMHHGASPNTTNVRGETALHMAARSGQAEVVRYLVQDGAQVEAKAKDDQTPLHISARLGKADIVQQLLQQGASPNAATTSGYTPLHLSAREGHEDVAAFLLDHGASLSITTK

Chain of AnkG R6-16 (O70511 whole entry, the tested form may be a part): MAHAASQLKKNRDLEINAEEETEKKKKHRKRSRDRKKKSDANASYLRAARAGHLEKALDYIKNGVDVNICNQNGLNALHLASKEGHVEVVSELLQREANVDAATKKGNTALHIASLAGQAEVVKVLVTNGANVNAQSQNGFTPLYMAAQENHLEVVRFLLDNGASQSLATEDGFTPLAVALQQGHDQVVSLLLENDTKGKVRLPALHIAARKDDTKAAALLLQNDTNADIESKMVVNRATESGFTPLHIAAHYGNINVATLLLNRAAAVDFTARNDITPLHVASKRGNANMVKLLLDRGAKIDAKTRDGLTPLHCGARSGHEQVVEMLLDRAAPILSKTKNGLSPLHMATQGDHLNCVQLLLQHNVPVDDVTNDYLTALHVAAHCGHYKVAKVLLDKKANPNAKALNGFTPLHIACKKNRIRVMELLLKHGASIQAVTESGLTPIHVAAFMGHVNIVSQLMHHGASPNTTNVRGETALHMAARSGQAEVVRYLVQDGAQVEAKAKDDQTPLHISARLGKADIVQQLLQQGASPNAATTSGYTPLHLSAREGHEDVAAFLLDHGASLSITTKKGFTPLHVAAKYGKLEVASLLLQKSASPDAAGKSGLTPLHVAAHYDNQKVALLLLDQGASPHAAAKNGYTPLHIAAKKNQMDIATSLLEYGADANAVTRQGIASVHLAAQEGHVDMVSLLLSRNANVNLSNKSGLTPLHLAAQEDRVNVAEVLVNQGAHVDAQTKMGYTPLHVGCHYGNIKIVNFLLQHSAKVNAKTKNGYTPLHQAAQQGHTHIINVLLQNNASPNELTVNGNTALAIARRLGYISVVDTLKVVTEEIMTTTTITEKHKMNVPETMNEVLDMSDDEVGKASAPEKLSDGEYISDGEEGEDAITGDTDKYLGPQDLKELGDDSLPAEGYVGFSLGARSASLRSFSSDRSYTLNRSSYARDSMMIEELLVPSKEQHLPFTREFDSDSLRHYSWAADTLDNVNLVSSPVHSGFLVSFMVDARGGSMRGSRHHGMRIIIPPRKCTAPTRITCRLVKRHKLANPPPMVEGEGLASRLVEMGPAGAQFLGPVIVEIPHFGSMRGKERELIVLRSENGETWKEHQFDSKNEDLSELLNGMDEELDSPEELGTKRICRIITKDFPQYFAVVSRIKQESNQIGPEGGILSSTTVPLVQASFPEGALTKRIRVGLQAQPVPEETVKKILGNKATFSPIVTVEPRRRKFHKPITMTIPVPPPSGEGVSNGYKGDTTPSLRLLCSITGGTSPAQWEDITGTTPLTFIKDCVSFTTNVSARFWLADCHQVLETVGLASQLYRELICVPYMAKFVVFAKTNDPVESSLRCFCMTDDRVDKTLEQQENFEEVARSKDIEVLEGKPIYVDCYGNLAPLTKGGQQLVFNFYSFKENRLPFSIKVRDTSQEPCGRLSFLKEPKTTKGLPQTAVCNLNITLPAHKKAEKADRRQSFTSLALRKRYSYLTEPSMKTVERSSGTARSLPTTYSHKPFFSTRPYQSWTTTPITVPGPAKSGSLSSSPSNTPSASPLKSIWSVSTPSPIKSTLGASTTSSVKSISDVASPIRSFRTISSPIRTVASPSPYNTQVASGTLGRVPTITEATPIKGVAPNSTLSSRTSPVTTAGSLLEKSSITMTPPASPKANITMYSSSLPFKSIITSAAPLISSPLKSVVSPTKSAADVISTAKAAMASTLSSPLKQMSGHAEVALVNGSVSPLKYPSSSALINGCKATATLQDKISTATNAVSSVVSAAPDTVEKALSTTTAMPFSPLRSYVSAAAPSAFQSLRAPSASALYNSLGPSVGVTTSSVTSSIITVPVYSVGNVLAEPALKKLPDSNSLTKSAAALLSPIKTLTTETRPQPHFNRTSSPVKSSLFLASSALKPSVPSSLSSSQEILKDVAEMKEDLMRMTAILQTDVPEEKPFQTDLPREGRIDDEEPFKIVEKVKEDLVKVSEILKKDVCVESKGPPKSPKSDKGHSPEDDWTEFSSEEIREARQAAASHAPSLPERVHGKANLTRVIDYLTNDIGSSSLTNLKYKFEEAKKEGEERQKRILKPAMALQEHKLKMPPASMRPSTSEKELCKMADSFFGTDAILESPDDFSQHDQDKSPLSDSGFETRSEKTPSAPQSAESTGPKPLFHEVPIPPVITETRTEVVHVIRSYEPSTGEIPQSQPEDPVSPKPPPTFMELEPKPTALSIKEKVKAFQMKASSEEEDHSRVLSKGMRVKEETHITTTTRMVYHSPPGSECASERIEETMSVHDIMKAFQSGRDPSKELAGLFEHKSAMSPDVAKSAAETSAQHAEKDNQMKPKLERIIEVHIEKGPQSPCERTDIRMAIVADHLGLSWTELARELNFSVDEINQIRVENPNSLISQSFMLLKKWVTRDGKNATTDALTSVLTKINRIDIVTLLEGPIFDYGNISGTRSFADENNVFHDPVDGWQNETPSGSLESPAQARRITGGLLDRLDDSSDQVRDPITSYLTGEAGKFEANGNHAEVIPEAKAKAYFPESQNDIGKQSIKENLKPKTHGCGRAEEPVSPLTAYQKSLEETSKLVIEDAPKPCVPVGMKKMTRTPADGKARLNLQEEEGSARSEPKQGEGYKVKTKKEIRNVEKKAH

Molecule: Nfasc ankyrin binding domain (ABD), residues 1187-1214 (from UniProt P97685 1187-1214) (domain or fragment)
- Kd [1]: 290 nM

Molecule: SDDSLVDYGEGGEGQFNEDGSFIGQYTV (domain or fragment) [Nfasc ankyrin binding domain (ABD), residues 1187-1214]
- Kd [2]: ~220 nM
- Kd [3]: ~1200 nM

Molecule: GEGQFNADGSFIGQYTV [Nfasc 1198-1214 E1204A]
- fold decrease in binding affinity against Nfasc 1198-1214 WT [2]: ~27 fold

Molecule: GEGQQNEDGSFIGQYTV [Nfasc 1198-1214 F1202Q]
- fold decrease in binding against Nfasc 1198-1214 WT [2]: > 20 fold

Molecule: GEGQFNEDGSFIGQETV [Nfasc 1198-1214 Y1212E]
- fold decrease in binding against Nfasc 1198-1214 WT [2]: ~9 fold
